WO2019096294A1 (dated 2019)

How the values were obtained:
[1] = molecular target: T1, His-tagged human prothrombin (human, UniProt P00734 44-622, limits assumed); experiment: binding ELISA; His-tagged human prothrombin coated on plate
T1 construct: not shown: His tag

[2] = molecular target: T2, His-tagged human thrombin (human, UniProt P00734 328-622); experiment: Biacore SPR; ratio of the affinities for thrombin and prothrombin
[3] = molecular target: T2, His-tagged human thrombin; experiment: binding ELISA; biotinylated His-tagged human thrombin on streptavidin plate

- EC50 [1]: 0.151 µg/mL
- selective activity (affinity for thrombin relative to affinity for prothrombin) [2]: 11.2
- EC50 [3]: 0.375 µg/mL
B1: h1601-008 (antibody, V domains shown)
VH: EVQLVESGGGLVQPGGSLRLSCAASGFTFSDYYMAWVRQAPGKGLEWVSNINSDGSSTYYLDSLKSRFTISRDNSKNTLYLQMNSLKAEDTAVYYCARDHYHGNSYVFDYWGQGTTVTVSS
VL: DIQMTQSPSSLSASVGDRVTITCKASEDIYNRLAWYQQKPGKAPRLIISGATSLETGVPSRFSGSGSGKDYTLTISSLQPEDFATYYCQQYWSTPWTFGGGTKVEIK
notes: Humanized parent antibody from WO2017133673A1; Only VH and VL are tied to it; it was detected with an anti-human secondary antibody and captured with an anti-human capture kit
